T1: Flag-Myo5b-GTD (Rattus norvegicus (Rat), UniProt P70569)
T1 chain: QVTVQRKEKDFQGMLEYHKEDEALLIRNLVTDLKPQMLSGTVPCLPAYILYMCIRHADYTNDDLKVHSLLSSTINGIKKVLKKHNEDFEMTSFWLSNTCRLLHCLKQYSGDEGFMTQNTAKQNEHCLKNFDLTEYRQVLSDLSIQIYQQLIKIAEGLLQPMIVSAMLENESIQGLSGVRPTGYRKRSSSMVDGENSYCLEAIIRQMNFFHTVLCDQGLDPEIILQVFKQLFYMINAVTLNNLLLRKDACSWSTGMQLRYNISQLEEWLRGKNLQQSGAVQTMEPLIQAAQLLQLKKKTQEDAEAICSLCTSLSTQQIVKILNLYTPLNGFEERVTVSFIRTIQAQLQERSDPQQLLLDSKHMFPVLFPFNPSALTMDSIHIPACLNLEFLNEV

B1: GST–Rab11a (natural protein, human, UniProt P62491 1-216, looked up)
chain: MGTRDDEYDYLFKVVLIGDSGVGKSNLLSRFTRNEFNLESKSTIGVEFATRSIQVDGKTIKAQIWDTAGQERYRAITSAYYRGAVGALLVYDIAKHLTYENVERWLKELRDHADSNIVIMLVGNKSDLRHLRAVPTDEARAFAEKNGLSFIETSALDSTNVEAAFQTILTEIYRIVSQKQMSDRRENDMSPSNNVVPIHVPPTTENKPKVQCCQNI
notes: Rab11a, human (cDNA by RT-PCR from human brain cDNA); GTPγS also in the pull-down buffers; source: E. coli, purified (GSH-Sepharose); not shown: GST, N-terminal, kept

Columns and labels:
GST–Rab11a = target: B1; assay: pull-down; GSH-Sepharose; 0.5 μM GST–Rab11a (bait), 0–1.0 μM Flag-Myo5b-GTD, 0–1.0 μM Flag-FIP2-RBD; Buffer-B with 100 mM NaCl and 3 μM GTPγS; 4°C, 1 h; eluted with 20 mM GSH; Western blot (anti-Flag, anti-GST); conditions: both partners purified
[1] = target: T2, Flag-FIP2 (full-length Rab11 family interacting protein 2) (human, UniProt Q7L804 1-512); assay: pull-down; GSH-Sepharose; 0.5 μM GST–Rab11a (bait), 0–0.5 μM Flag-Myo5b-Tail, 0–1.0 μM Flag-FIP2 or Flag-FIP2-RBD; Buffer-B with 100 mM NaCl and 3 μM GTPγS; 4°C, 1 h; eluted with 20 mM GSH; Coomassie staining; conditions: both partners purified
T2 construct: not shown: Flag, N-terminal, kept

Flag-Myo5b-GTD = target: T1, Flag-Myo5b-GTD; assay: GST pull-down / anti-Flag pull-down; Rab11a loaded with GTPγS/Mg2+; binding competed away by FIP2-RBD

| Binder | binding result (GST–Rab11a) | binding result [1] | binding result (Flag-Myo5b-GTD) |
| --- | --- | --- | --- |
| Flag-FIP2-RBD (domain or fragment, human, UniProt Q7L804 452-512, looked up, not shown: Flag, N-terminal, kept) TYEEVLQELVKHKELLRRKDTHIRELEDYIDNLLVRVMEETPSILRVPYEPSRKAGKFSNS | binds | – | – |
| B1 | – | binds | binds |
